Paper PMC5932218 (Structure (London, England : 1993), 2018)

Experiments:
[1] = target: T1, calmodulin (CaM) (Homo sapiens, UniProt P0DP25); experiment: Isothermal titration calorimetry of CaM binding to NaV IG peptides; conditions: for effect of truncation of the IG peptide on CaM affinity: N- and C-terminally truncated IG peptides, Ca2+ present; for stoichiometry: 1:1 binding model
[2] = Solubility of IG peptide in ITC buffers; type: physicochemical; conditions: under higher ionic strength conditions
[3] = target: T1, calmodulin (CaM); experiment: NMR analysis of Ca2+-loaded CaM binding to wild type versus mutant IG peptides; conditions: 15N-enriched IG peptide with CaM, intermediate versus slow exchange
[4] = system: calmodulin (CaM); conditions: ref (15); cited from earlier work
[5] = target: NaV1.5 inactivation gate peptide D1471-V1532 (full-length IG, 62 residues) (human) (UniProt Q14524); experiment: ITC
NaV1.5 inactivation gate peptide D1471-V1532 (full-length IG, 62 residues) (human), sequence (Q14524 1471-1532, tags left off): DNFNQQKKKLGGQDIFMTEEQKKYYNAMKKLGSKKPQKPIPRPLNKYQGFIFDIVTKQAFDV

[6] = target: NaV1.2 inactivation gate peptide (aligned to NaV1.5 Q1483-A1529) (human); experiment: ITC
[7] = target: NaV1.5 inactivation gate peptide Q1483-A1529 (human) (UniProt Q14524); experiment: ITC
[8] = target: NaV1.4 inactivation gate peptide (aligned to NaV1.5 Q1483-A1529) (human); experiment: ITC
[9] = target: NaV1.6 inactivation gate peptide (aligned to NaV1.5 Q1483-A1529) (human); experiment: ITC
[10] = target: NaV1.5 inactivation gate peptide Q1483-A1529 (human) (UniProt Q14524); experiment: SEC-MALS
[11] = target: NaV1.5 inactivation gate peptide Q1483-A1529 (human) (UniProt Q14524); experiment: NMR titration
[12] = target: NaV1.5 inactivation gate peptide Q1483-A1529 (human) (UniProt Q14524); experiment: SAXS
[13] = ITC, in the presence of Ca2+, lower ionic strength buffer
[14] = ITC, 20 mM TRIS, 50 mM NaCl, 1 mM CaCl2, pH 7.4, triplicate, ± SD

Substance: D1471-V1532: 62-residue peptide corresponding to the full-length NaV1.5 inactivation gate (IG)
- CaM interaction in the absence of Ca2+ ([1]; ITC, absence of Ca2+): no interaction was observed
- ΔH [1, 13]: -9.3 ± 0.1 kcal/mol
- ΔS [1, 13]: 5.2 ± 1.1 cal/mol•deg
- solubility [2]: limited solubility

Substance: D1523: NaV1.5 IG peptide with the C terminus truncated to D1523
- effect of truncation of the IG peptide on CaM affinity ([1]; ITC): reduced affinity into the μM range

Substance: H-GPGSQDIFMTEEQKKYYNAMKKLGSKKPQKPIPRPLNKIQGIVFDFVTQQA-OH [NaV 1.6]
- stoichiometry [1, 14]: 1.03 ± 0.01
- ΔH [1, 14]: -9.0 ± 0.2 kcal/mol
- ΔS (cal/mol•deg) [1, 14]: 2.5 ± 1.1 cal/mol•deg
- Kd ([1]; SD): 82 ± 20 nM

Substance: H-GPGSQDIFMTEEQKKYYNAMKKLGSKKPQKPIPRPQNKIQGMVYDLVTKQA-OH [NaV 1.4]
- stoichiometry [1, 14]: 1.06 ± 0.01
- ΔH [1, 14]: -8.8 ± 0.3 kcal/mol
- ΔS (cal/mol•deg) [1, 14]: 3.8 ± 1.3 cal/mol•deg

Substance: IG peptide double mutant: IG peptide with both the Y1494L (Site A) and F1522L (Site B) mutations
- affinity of CaM for the variant IG peptide relative to WT [3]: significant reduction in the affinity

Substance: Q1483: NaV1.5 IG peptide with the N terminus truncated to Q1483
- effect of truncation of the IG peptide on CaM affinity ([1]; ITC): no effect on CaM affinity

Substance: T1526: NaV1.5 IG peptide with the C terminus truncated to T1526
- effect of truncation of the IG peptide on CaM affinity ([1]; ITC): reduced affinity into the μM range

Substance: Y1494A: Y1494A site A mutant of the IG from a previous study
- effect of Y1494A site A mutation on CaM affinity [4]: substantially reduced

Substance: calmodulin (CaM), Ca2+-loaded unless stated (from UniProt P0DP25 1-149) (natural protein)
- dH [5]: -9.3 kcal/mol
- stoichiometry N [6]: 1.02
- dH [7]: -5.8 kcal/mol
- stoichiometry N [8]: 1.06
- Kd [9]: 82 nM
- stoichiometry N [9]: 1.03
- stoichiometry N [10]: 1
- stoichiometry N [11]: 1
- stoichiometry N [12]: 1
